Results on one protein are retold here after ChEMBL document CHEMBL1155708, “Isoaurostatin, a novel topoisomerase inhibitor produced by Thermomonospora alba” (J Nat Prod, 2001).

Substrate in this series: O=C1Oc2cc(O)ccc2/C1=C\c1ccc(O)cc1
The conditions noted are these: Bos taurus.

Description: Activity at calf thymus gland topoisomerase 1 assessed as conversion of supercoiled pBR322 DNA to relaxed form by Lineweaver-Burke plot

B1: DNA topoisomerase (Bos taurus), A0JN73 (protein)
chain: MIFPAAHRALRGLPRPGTRALTRAAMEVALRGVRKILCVAEKNDAAKGIADLLSGGRMRRREGLSRFNKIYEFDYHLCGQNVTMVMTSVSGHLLAHDFRMQFRKWQSCNPLVLFEAEIEKYCPENFVDIKKTLEREAQQCQALVIWTDCDREGENIGFEVIHVCKAVKPSLQVLRARFSEITTRAVRTACENLTEPDQRVSDAVDVRQELDLRIGAAFTRFQTLRLQKIFPEVLAEQLISYGSCQFPTLGFVVERFKAIQAFVPEVFHKIRVTHDHRDGVVEFSWKRHRLFNHTACLVLYQMCMEDPRAMVVEVRSKAKSKWRPQALDTVELEKLASRKLRINAKETMRIAEKLYTQGYISYPRTETNIFPKDLDLAALVEQQTPDPRWGAFARNILERGGPTPRNGNKSDQAHPPIHPTKYTDSLQGDEQRLYELIVRHFLACCSQDAQGQETTVEIDIAQERFVAHGLMILARNYLDVYPYDRWSDKTLPVYEQGTCFQPSTVEMVDGETSPPQLLTEADLIALMEKHGIGTDATHAEHIETIKARMYVGLTPDKRFLPGHLGMGLVEGYDSMGYEMSKPDLRAELEADLKLICEGKKDKLVVLHQQVQKYKQVFIEAVAKARKLDEALSQYFGAATEVAPQDALPAVPEPIRKCPQCSRDMVLKTRKSGGFYLGCTGFPECRSAVWFPDSVLEASRDVSVCPVCQPHPVYRLKFKFKRGSLPPTMPLEFVGCIGGCDETLREILALRFSQGAARVSQPASQTSGYLQASQSLNRMDSGQQGQPRPPVTRPSKALTRTLPPPAVESESNSVTCNCGQEALLLTVRKEGPNQGRQFYKCGSGGCSFFLWADSGHPGAGPPSSASRPPGGPLEHPPGSGTLLGGSSRPGSGGSGGASCLCGQPAVTRTVQKEGPNQGRQFHTCAQPREHQCGFFQWVDENVAPGTFGGPLWPGSRRGTQGLEARSKRPRAGSSDTGSATKKPRKCSLCHQPGHTRPFCPQNR
A word on the Km: it is the substrate concentration at which the rate is half of its maximum. For B1, the Km amounted to 0.0111 µM.
